Here are results for one molecule from patent US20130022590A1, “Compositions Comprising Zinc Finger Domains and Uses Therefor” (priority 2009, published 2013).

Assay [1] deals with 5′ splice site from exon 3 of the Tra2β minigene (CUCUGAAUCUAGGUAAGAAAG). Nature of the assay: Surface plasmon resonance competition binding. Particulars: 750 nM F12, 1 molar equivalent competitor RNA; compared with exons 1 and 2. As to the method: Competition binding experiments were carried out by flowing a solution of F12 over a streptavidin chip coated with a biotinylated ssRNA oligonucleotide (containing the sequence AGGUAA) in the presence of an unlabeled competitor oligonucleotide.
Binding experiments were performed in triplicate at 25° C. on a BIACORE 3000 (Biacore). A 5′ biotin-labeled RNA oligonucleotide containing the 5′ splice site from exon 3 of the Tra2β minigene ([…]; SEQ ID NO: 29) was purified by size exclusion chromatography (Superdex 75), and unlabeled competitor oligonucleotides i.e., GCGAGCGGUACGUAGA from exon 1 (SEQ ID NO: 30), AGGAAUAAGUGAAGCUG from exon 2 (SEQ ID NO: 31), and […] from exon 3 (SEQ ID NO: 32) were used without further purification. Protein and RNA samples were dialysed into 10 mM sodium phosphate (pH 7.2), 50 mM NaCl, 1 mM DTT, and 0.005% NP20 and filtered. The biotinylated RNA was heated to 65° C. for 5 min, cooled on ice, and then immobilized onto a streptavidin-coated sensor chip to a total of approximately 160 relative units. Solutions of 750 nM F12 in the presence of 1 molar equivalent of each competitor RNA were injected in random order over the sensor chip (at a flow rate of 20 μL/min for 120 sec) and allowed to undergo a 120-sec dissociation time; a further 300-sec interval was allowed between injections. Data were analyzed by using BIA Evaluation software (Biacore). […]
For orientation: SPR reads the build-up and loss of mass on a sensor chip optically.

Assay [2] relates to 17-nt RNA oligonucleotide containing a single AGGUAA motif. In words: Gel shift assay of F12 with 17-nt oligonucleotide. The assay is classed as binding. The procedure:
Gel Shift assays e.g., FIGS. 1B, 32A, were carried out using standard protocols. In brief, oligonucleotides were 5′ end-labelled with T4 polynucleotide kinase and annealed. Binding reactions were set up in a volume of 30 μL and contained a constant concentration of ^32P-labeled probe (0.1 pmol) and increasing concentrations of F12, in a buffer consisting of 10 mM Mops (pH 7.2), 50 mM KCl, 5 mM MgCl2, 1 mM DTT, 0.03 mg/mL heparin, and 5% glycerol. Binding reactions were set up on ice and incubated at 4° C. for 30 min, after which time 15 μL of each sample was loaded onto a prerun 8% native polyacrylamide gel made up in 0.5× Tris-borate buffer, and electrophoresed (250V, 1 h, 4° C.). The oligonucleotide sequence used for gel shift experiments was GCAACCAGGUAAAGUCU (SEQ ID NO: 28); the site was mutated by changing the central GGU to CUG.
To determine whether the AGGUAA motif was sufficient for binding, the binding of the double finger construct F12 to a 17-nt RNA oligonucleotide containing a single AGGUAA motif was tested as described in Section 1.4 above with dsDNA, ssDNA, and dsRNA also tested as controls.
For orientation: In EMSA bound probe runs differently from free probe, usually more slowly.

The test system of assay [3] is ssRNA pool containing a randomized 25-nt sequence. Nature of the assay: SELEX in vitro site selection. The assay is classed as binding. Particulars: up to 13 rounds of selection. The procedure: A ZRANB2-F12 SELEX protocol was developed, based on that used by Sakashita E. and Sakamoto H.1994 Acids Res 22:4082-4086. In brief, a library of ssRNA sequences was incubated with GST-F12 on glutathione Sepharose beads, and after washing protein—RNA complexes were eluted with glutathione and the selected RNA was reverse-transcribed and amplified by PCR. Sequencing of selected sequences was carried out after 7, 9, and 13 rounds of selection.
An oligonucleotide harbouring a 25-nucleoride (nt) random sequence surrounded by 2 primer binding sites with an estimated complexity of 1.2×10^12 (sampling complete sequence space for 20-nt sequences) was amplified by 10 rounds of PCR as previously described in Sakashita E., and Sakamoto H.1994 Nucleic Acids Res 22: 4082-4086, then purified by using a QIAquick gel extraction kit (e.g., QIAGEN) according to manufacturer's instructions. RNA was transcribed from 13 pmol of dsDNA template, then extracted with phenol/chloroform and ethanol-precipitated according to established methods in the art. The RNA pellet was resuspended in water […], and unincorporated nucleotides were removed by Sephadex G-25 Quick Spin columns (Roche). RNA was quantified by absorbance at 260 nm.
Binding reactions were carried out in SELEX buffer [10 mM Mops (pH 7.0), 50 mM KCl, 5 mM MgCl2, 5% glycerol, 1 mM DTT, 0.1% Triton, […], Complete protease inhibitor]. […]

In assay [4] the test system is ssRNA containing two AGGUAA sites (AGGUAAAGGUAA, SEQ ID NO: 26). In words: Fluorescence anisotropy titration, double-site ssRNA. The assay is classed as binding. The procedure: Fluorescence Anisotropy titrations e.g., as shown in FIGS. 1D-F, 8 and 35, were carried out using standard protocols. In brief, 5′-Fluorescein-labeled RNA oligonucleotides were quantified by A260, correcting for fluorescein absorbance by using A493. For single-site experiments, the sequence GCAACCAGGUAAAGUCU (SEQ ID NO: 28), or single base mutants thereof, was used. For double-site experiments, two AGGUAA sites were separated by different length sequences as indicated, and the total oligonucleotide lengths were kept constant by the symmetrical addition of adenines to each end. The anisotropy titrations were performed with a starting RNA concentration of 50 nM in a buffer comprising either 10 mM Tris (pH 8.0), 50 mM KCl, 5 mM MgCl2, 0.05 mg/mL heparin, and 1 mM DTT (for GST fusion constructs) or 10 mM Mops (pH 7.3), 50 mM NaCl, 0.05 mg/mL heparin, and 1 mM DTT (for ZRANB2-F12). RNasin (Promega) was also added to the protein solution to a concentration of 2 units/μL. Protein was titrated into this starting solution and anisotropy values measured on a Cary Eclipse fluorescence spectrophotometer fitted with manual polarizer and long-pass filters set to 475 and 515 nm for excitation and emission, respectively. Excitation and emission wavelengths were set at 495 and 520 nm, respectively (10-nm slits) and the temperature was maintained at 25° C. by using a block temperature controller. Association constants were determined by nonlinear least squares regression analysis using a 1:1 binding model.
The importance of the spacing between AGGUAA motifs was assessed by measuring binding of F12 to double sites that were separated by −1 to 8 nt (where −1 denotes the sequence AGGUAAGGUAA SEQ ID NO: 33; FIG. 1E, lanes 5-10).

B1: F12: F1 and F2 domains, residues 1-95 of human ZRANB2 (protein, UniProt O95218 1-95, looked up, fragment)
chain: MSTKNFRVSDGDWICPDKKCGNVNFARRTSCNRCGREKTTEAKMMKAGGTEIGKTLAEKSRGLFSANDWQCKTCSNVNWARRSECNMCNTPKYAK
modifications: F1-F2 zinc fingers GST fusion in some uses
notes: F1 and F2 domains, residues 1-95 of human ZRANB2
As to B1, the “reduction in binding to the chip by competitor 5′ splice site oligonucleotide of exon 3” value in assay [1] was “largest reduction in binding”. In assay [2], the “effect of mutation of the central GGU to CUG” value was “abrogated the interaction”. In addition, in assay [2] (dsDNA, ssDNA, dsRNA tested as controls), the “nucleic acid type selectivity of the interaction” value is given as “strongly selective for ssRNA”. Also, the “consensus ssRNA sequence recognized” value in assay [3] is listed as “AGGUAA(N1-8)AGGUAA”. The “effect on binding of scrambling both sites” value in assay [4] (FIG. 1E, lane 3) is reported as “effectively eliminated binding”. For the same molecule, in assay [4] (FIG. 1E, lane 6), the “affinity (association constant) for AGGUAAAGGUAA” value stood at 1.9e+07 M⁻¹. Besides, the “affinity for double site with cytosine-rich spacer versus penta-adenine spacer” value in assay [4] (FIG. 1E, lanes 10 and 8) was “same affinity”. Also, the “affinity versus spacing between AGGUAA motifs” value in assay [4] (double sites separated by −1 to 8 nt, adenines inserted) is on record as “increased monotonically”. In addition, the “effect on binding of randomizing one of the AGGUAA motifs” value in assay [4] (sequence AGAAUGAGGUAA, FIG. 1E, lane 4) is reported as “reduced the binding by a small, but reproducible, amount”.
